Results: PMC2859985 (Virus research, 2010)

Experiments:
[1] = molecular target: importin alpha 5, His-tagged (human, UniProt P52294 1-538); experiment: pull-down
[2] = molecular target: T1, importin alpha 3, His-tagged (human, UniProt O00629 1-521); experiment: pull-down
T1 sequence (looked up): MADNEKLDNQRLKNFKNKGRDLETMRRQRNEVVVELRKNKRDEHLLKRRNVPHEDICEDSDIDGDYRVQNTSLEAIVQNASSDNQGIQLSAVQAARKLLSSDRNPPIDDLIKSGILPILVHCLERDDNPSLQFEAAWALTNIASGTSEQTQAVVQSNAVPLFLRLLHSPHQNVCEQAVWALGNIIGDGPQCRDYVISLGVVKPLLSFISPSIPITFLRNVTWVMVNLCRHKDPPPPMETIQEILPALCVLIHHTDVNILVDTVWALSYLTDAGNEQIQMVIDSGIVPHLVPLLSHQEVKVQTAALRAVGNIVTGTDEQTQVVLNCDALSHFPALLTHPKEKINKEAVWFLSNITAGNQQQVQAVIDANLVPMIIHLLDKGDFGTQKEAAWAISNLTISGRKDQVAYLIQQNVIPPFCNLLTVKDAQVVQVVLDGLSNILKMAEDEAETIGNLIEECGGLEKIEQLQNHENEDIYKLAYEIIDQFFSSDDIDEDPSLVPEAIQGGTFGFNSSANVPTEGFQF

Sequence of importin alpha 5, His-tagged (P52294 whole entry): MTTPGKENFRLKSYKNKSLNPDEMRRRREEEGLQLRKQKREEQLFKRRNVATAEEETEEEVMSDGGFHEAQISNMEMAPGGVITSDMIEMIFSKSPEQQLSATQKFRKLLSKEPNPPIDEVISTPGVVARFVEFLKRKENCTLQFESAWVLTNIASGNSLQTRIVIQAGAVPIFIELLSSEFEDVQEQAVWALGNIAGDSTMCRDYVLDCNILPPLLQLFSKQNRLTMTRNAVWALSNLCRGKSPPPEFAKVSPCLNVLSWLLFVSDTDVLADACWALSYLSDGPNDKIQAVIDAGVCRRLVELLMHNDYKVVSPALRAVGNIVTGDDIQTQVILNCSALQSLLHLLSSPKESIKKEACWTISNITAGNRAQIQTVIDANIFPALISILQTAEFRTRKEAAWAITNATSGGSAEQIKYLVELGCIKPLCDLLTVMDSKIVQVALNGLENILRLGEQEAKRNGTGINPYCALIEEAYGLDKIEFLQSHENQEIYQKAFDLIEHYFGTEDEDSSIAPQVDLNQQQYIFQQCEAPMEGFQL

B1: GST-HPV16 E2 (natural protein)
chain: METLCQRLNVCQDKILTHYENDSTDLRDHIDYWKHMRLECAIYYKAREMGFKHINHQVVPTLAVSKNKALQAIELQLTLETIYNSQYSNEKWTLQDVSLEVYLTAPTGCIKKHGYTVEVQFDGDICNTMHYTNWTHIYICEEASVTVVEGQVDYYGLYYVHEGIRTYFVQFKDDAEKYSKNKVWEVHAGGQVILCPTSVFSSNEVSSPEIIRQHLANHPAATHTKAVALGTEETQTTIQRPRSEPDTGNPCHTTKLLHRDSVDSAPILTAFNSSHKGRINCNSNTTPIVHLKGDANTLKCLRYRFKKHCTLYTAVSSTWHWTGHNVKHKSAIVTLTYDSEWQRDQFLSQVKIPKTITVSTGFMSI
B1: binds [1].

B2: GST-HPV11 E2 (natural protein)
chain: MEAIAKRLDACQDQLLELYEENSIDIHKHIMHWKCIRLESVLLHKAKQMGLSHIGLQVVPPLTVSETKGHNAIEMQMHLESLAKTQYGVEPWTLQDTSYEMWLTPPKRCFKKQGNTVEVKFDGCEDNVMEYVVWTHIYLQDNDSWVKVTSSVDAKGIYYTCGQFKTYYVNFNKEAQKYGSTNHWEVCYGSTVICSPASVSSTVREVSIAEPTTYTPAQTTAPTVSACTTEDGVSAPPRKRARGPSTNNTLCVANIRSVDSTINNIVTDNYNKHQRRNNCHSAATPIVQLQGDSNCLKCFRYRLNDKYKHLFELASSTWHWASPEAPHKNAIVTLTYSSEEQRQQFLNSVKIPPTIRHKVGFMSLHLL
B2: binds [1]; binds [2].
